For 27 molecules, Kd results are on record in PMC10786891, “Massively parallel profiling of RNA-targeting CRISPR-Cas13d”.

What is called Kd is the free concentration of one partner at which half of the binding sites on the other are occupied at equilibrium, for simple one-to-one binding. Read a high Kd as weaker binding.

The labels stand for the following.
T1: EsCas13d, nuclease-dead (Eubacterium siraeum, UniProt B0MS50, R295A;H300A;R849A;H854A)
T1 sequence: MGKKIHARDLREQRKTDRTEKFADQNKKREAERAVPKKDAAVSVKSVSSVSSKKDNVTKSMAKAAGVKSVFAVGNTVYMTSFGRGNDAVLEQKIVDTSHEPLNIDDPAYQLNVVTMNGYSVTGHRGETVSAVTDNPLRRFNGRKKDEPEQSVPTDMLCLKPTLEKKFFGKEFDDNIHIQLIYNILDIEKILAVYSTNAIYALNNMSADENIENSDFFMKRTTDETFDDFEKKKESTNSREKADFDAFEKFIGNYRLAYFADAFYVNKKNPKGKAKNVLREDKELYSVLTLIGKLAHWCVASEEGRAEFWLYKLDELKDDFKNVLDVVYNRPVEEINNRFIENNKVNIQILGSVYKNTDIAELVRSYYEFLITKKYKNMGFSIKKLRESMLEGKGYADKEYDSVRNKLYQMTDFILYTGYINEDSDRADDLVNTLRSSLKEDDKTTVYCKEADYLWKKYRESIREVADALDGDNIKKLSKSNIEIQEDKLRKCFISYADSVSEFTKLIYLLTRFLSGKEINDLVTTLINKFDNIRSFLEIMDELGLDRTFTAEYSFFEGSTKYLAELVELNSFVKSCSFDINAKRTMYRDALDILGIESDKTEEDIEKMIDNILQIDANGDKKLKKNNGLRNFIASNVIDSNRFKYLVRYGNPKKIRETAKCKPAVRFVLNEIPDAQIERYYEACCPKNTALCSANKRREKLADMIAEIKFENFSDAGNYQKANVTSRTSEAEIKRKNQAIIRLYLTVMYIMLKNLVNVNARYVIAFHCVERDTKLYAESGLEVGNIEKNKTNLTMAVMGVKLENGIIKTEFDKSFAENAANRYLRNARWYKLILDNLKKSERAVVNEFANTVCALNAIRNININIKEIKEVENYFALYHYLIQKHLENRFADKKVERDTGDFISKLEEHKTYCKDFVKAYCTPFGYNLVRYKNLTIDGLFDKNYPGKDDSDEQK

B1: target 1 insC 3' of 20,insC 3' of 5 (mixed)
RNA 1: CACCCGUGCAAAAAUGCAGGGGUCUAAAACUGAGCGGAUAACCUCUCUAUGG
RNA 2: GGGAAUGGAUCCACAUCUACGAAUUCGUACCACUAGAGAGGUUAUCCGCCUCACCGAGAUCGGAAGAGCACACGU
B2: target 1 C7U,U19G (mixed)
RNA 1: CACCCGUGCAAAAAUGCAGGGGUCUAAAACUGAGCGGAUAACCUCUCUAUGG
RNA 2: GGGAAUGGAUCCACAUCUACGAAUUCGUACCAGAGAGAGGUUAUUCGCUCACCGAGAUCGGAAGAGCACACGU
B3: target 1 insC 3' of 13,insC 3' of 10 (mixed)
RNA 1: CACCCGUGCAAAAAUGCAGGGGUCUAAAACUGAGCGGAUAACCUCUCUAUGG
RNA 2: GGGAAUGGAUCCACAUCUACGAAUUCGUACCAUAGAGAGCGUUCAUCCGCUCACCGAGAUCGGAAGAGCACACGU
B4: target 1 insC 3' of 18,insU 3' of 9 (mixed)
RNA 1: CACCCGUGCAAAAAUGCAGGGGUCUAAAACUGAGCGGAUAACCUCUCUAUGG
RNA 2: GGGAAUGGAUCCACAUCUACGAAUUCGUACCAUACGAGAGGUUAUUCCGCUCACCGAGAUCGGAAGAGCACACGU
B5: target 1 complement block 4-11 (mixed)
RNA 1: CACCCGUGCAAAAAUGCAGGGGUCUAAAACUGAGCGGAUAACCUCUCUAUGG
RNA 2: GGGAAUGGAUCCACAUCUACGAAUUCGUACCAUAGAGAGGAAUAGGCGUCACCGAGAUCGGAAGAGCACACGU
B6: target 1 A1C,A9G (mixed)
RNA 1: CACCCGUGCAAAAAUGCAGGGGUCUAAAACUGAGCGGAUAACCUCUCUAUGG
RNA 2: GGGAAUGGAUCCACAUCUACGAAUUCGUACCAUAGAGAGGUUGUCCGCUCCCCGAGAUCGGAAGAGCACACGU
B7: target 1 A1C,C4U (mixed)
RNA 1: CACCCGUGCAAAAAUGCAGGGGUCUAAAACUGAGCGGAUAACCUCUCUAUGG
RNA 2: GGGAAUGGAUCCACAUCUACGAAUUCGUACCAUAGAGAGGUUAUCCGUUCCCCGAGAUCGGAAGAGCACACGU
B8: target 1 insC 3' of 14,insC 3' of 14 (mixed)
RNA 1: CACCCGUGCAAAAAUGCAGGGGUCUAAAACUGAGCGGAUAACCUCUCUAUGG
RNA 2: GGGAAUGGAUCCACAUCUACGAAUUCGUACCAUAGAGACCGGUUAUCCGCUCACCGAGAUCGGAAGAGCACACGU
B9: target 1 insC 3' of 18,insA 3' of 3 (mixed)
RNA 1: CACCCGUGCAAAAAUGCAGGGGUCUAAAACUGAGCGGAUAACCUCUCUAUGG
RNA 2: GGGAAUGGAUCCACAUCUACGAAUUCGUACCAUACGAGAGGUUAUCCGCUACACCGAGAUCGGAAGAGCACACGU
B10: target 1 complement block 2-8 (mixed)
RNA 1: CACCCGUGCAAAAAUGCAGGGGUCUAAAACUGAGCGGAUAACCUCUCUAUGG
RNA 2: GGGAAUGGAUCCACAUCUACGAAUUCGUACCAUAGAGAGGUUAAGGCGAGACCGAGAUCGGAAGAGCACACGU
B11: target 1 G5C,G15A (mixed)
RNA 1: CACCCGUGCAAAAAUGCAGGGGUCUAAAACUGAGCGGAUAACCUCUCUAUGG
RNA 2: GGGAAUGGAUCCACAUCUACGAAUUCGUACCAUAGAAAGGUUAUCCCCUCACCGAGAUCGGAAGAGCACACGU
B12: target 1 del2,del14 (mixed)
RNA 1: CACCCGUGCAAAAAUGCAGGGGUCUAAAACUGAGCGGAUAACCUCUCUAUGG
RNA 2: GGGAAUGGAUCCACAUCUACGAAUUCGUACCAUAGAGGGUUAUCCGCUACCGAGAUCGGAAGAGCACACGU
B13: target 1 insA 3' of 19,insU 3' of 4 (mixed)
RNA 1: CACCCGUGCAAAAAUGCAGGGGUCUAAAACUGAGCGGAUAACCUCUCUAUGG
RNA 2: GGGAAUGGAUCCACAUCUACGAAUUCGUACCAUAAGAGAGGUUAUCCGCUUCACCGAGAUCGGAAGAGCACACGU
B14: target 1 C2G,G5A (mixed)
RNA 1: CACCCGUGCAAAAAUGCAGGGGUCUAAAACUGAGCGGAUAACCUCUCUAUGG
RNA 2: GGGAAUGGAUCCACAUCUACGAAUUCGUACCAUAGAGAGGUUAUCCACUGACCGAGAUCGGAAGAGCACACGU
B15: target 1 insU 3' of 20,insG 3' of 10 (mixed)
RNA 1: CACCCGUGCAAAAAUGCAGGGGUCUAAAACUGAGCGGAUAACCUCUCUAUGG
RNA 2: GGGAAUGGAUCCACAUCUACGAAUUCGUACCAUUAGAGAGGUUGAUCCGCUCACCGAGAUCGGAAGAGCACACGU
B16: target 1 A1G,C4U (mixed)
RNA 1: CACCCGUGCAAAAAUGCAGGGGUCUAAAACUGAGCGGAUAACCUCUCUAUGG
RNA 2: GGGAAUGGAUCCACAUCUACGAAUUCGUACCAUAGAGAGGUUAUCCGUUCGCCGAGAUCGGAAGAGCACACGU
B17: target 1 U8C,C21A (mixed)
RNA 1: CACCCGUGCAAAAAUGCAGGGGUCUAAAACUGAGCGGAUAACCUCUCUAUGG
RNA 2: GGGAAUGGAUCCACAUCUACGAAUUCGUACAAUAGAGAGGUUACCCGCUCACCGAGAUCGGAAGAGCACACGU
B18: target 1 A1U,A9G (mixed)
RNA 1: CACCCGUGCAAAAAUGCAGGGGUCUAAAACUGAGCGGAUAACCUCUCUAUGG
RNA 2: GGGAAUGGAUCCACAUCUACGAAUUCGUACCAUAGAGAGGUUGUCCGCUCUCCGAGAUCGGAAGAGCACACGU
B19: target 1 C7A,U10A (mixed)
RNA 1: CACCCGUGCAAAAAUGCAGGGGUCUAAAACUGAGCGGAUAACCUCUCUAUGG
RNA 2: GGGAAUGGAUCCACAUCUACGAAUUCGUACCAUAGAGAGGUAAUACGCUCACCGAGAUCGGAAGAGCACACGU
B20: target 1 insC 3' of 9,insC 3' of 9 (mixed)
RNA 1: CACCCGUGCAAAAAUGCAGGGGUCUAAAACUGAGCGGAUAACCUCUCUAUGG
RNA 2: GGGAAUGGAUCCACAUCUACGAAUUCGUACCAUAGAGAGGUUACCUCCGCUCACCGAGAUCGGAAGAGCACACGU
B21: target 1 insA 3' of 15,insA 3' of 8 (mixed)
RNA 1: CACCCGUGCAAAAAUGCAGGGGUCUAAAACUGAGCGGAUAACCUCUCUAUGG
RNA 2: GGGAAUGGAUCCACAUCUACGAAUUCGUACCAUAGAGAAGGUUAUACCGCUCACCGAGAUCGGAAGAGCACACGU
B22: target 1 G5A,U8C (mixed)
RNA 1: CACCCGUGCAAAAAUGCAGGGGUCUAAAACUGAGCGGAUAACCUCUCUAUGG
RNA 2: GGGAAUGGAUCCACAUCUACGAAUUCGUACCAUAGAGAGGUUACCCACUCACCGAGAUCGGAAGAGCACACGU
B23: target 1 G13A,C21A (mixed)
RNA 1: CACCCGUGCAAAAAUGCAGGGGUCUAAAACUGAGCGGAUAACCUCUCUAUGG
RNA 2: GGGAAUGGAUCCACAUCUACGAAUUCGUACAAUAGAGAAGUUAUCCGCUCACCGAGAUCGGAAGAGCACACGU
B24: target 1 insA 3' of 22,insA 3' of 10 (mixed)
RNA 1: CACCCGUGCAAAAAUGCAGGGGUCUAAAACUGAGCGGAUAACCUCUCUAUGG
RNA 2: GGGAAUGGAUCCACAUCUACGAAUUCGUACACAUAGAGAGGUUAAUCCGCUCACCGAGAUCGGAAGAGCACACGU
B25: target 1 A1G,A9G (mixed)
RNA 1: CACCCGUGCAAAAAUGCAGGGGUCUAAAACUGAGCGGAUAACCUCUCUAUGG
RNA 2: GGGAAUGGAUCCACAUCUACGAAUUCGUACCAUAGAGAGGUUGUCCGCUCGCCGAGAUCGGAAGAGCACACGU
B26: target 1 A9U,U10G (mixed)
RNA 1: CACCCGUGCAAAAAUGCAGGGGUCUAAAACUGAGCGGAUAACCUCUCUAUGG
RNA 2: GGGAAUGGAUCCACAUCUACGAAUUCGUACCAUAGAGAGGUGUUCCGCUCACCGAGAUCGGAAGAGCACACGU
B27: target 1 U3G,A18G (mixed)
RNA 1: CACCCGUGCAAAAAUGCAGGGGUCUAAAACUGAGCGGAUAACCUCUCUAUGG
RNA 2: GGGAAUGGAUCCACAUCUACGAAUUCGUACCAUGGAGAGGUUAUCCGCGCACCGAGAUCGGAAGAGCACACGU

The data set addresses T1, EsCas13d, nuclease-dead. As to the kind of experiment: crRNA (strand 1, pre-loaded); Mg2+; 40 mM Tris-HCl pH 7.5, 150 mM NaCl, 6 mM MgCl2, 1 mM DTT, 0.1% Tween-20, 0.2 mg/ml BSA; 25 C; 10 min per concentration, then washed. The conditions noted are these: tags: His6-TwinStrep-SUMO cleaved; N-terminal SNAP kept (SNAP-Surface 488); label: 3' end held by stalled T7 RNA polymerase.
On to B1, for which binding was put at a Kd of 5.23 ± 0.33 nM.

B2 yielded a Kd of 57 ± 7 nM.

Take B3: the affinity, expressed as Kd, was 12.9 ± 1.3 nM.

For B4, the dissociation constant Kd turned out to be 51 ± 11 nM.

For the molecule B5, the affinity, expressed as Kd, was 12.4 ± 0.6 nM.

On to B6, for which the Kd worked out at 21.2 ± 3.4 nM.

Consider B7, for which the Kd came out at 9.8 ± 1.2 nM.

In turn, B8 displayed a Kd of 42 ± 4 nM.

With B9, binding was put at a Kd of 23.9 ± 1.2 nM.

Consider B10, for which the Kd came out at 10.5 ± 0.5 nM.

B11 displayed a Kd of 19.9 ± 1.8 nM.

For the molecule B12, the Kd stood at 64 ± 11 nM.

In turn, B13 yielded a Kd of 17.9 ± 0.9 nM.

Turning to B14, the affinity, expressed as Kd, was 35 ± 5 nM.

On to B15, for which the Kd is 29 ± 6 nM.

As to B16, the Kd was determined as 31 ± 5 nM.

B17 came in with a Kd of 44 ± 5 nM.

B18 came in with a Kd of 13.1 ± 1.3 nM.

As for B19, binding was put at a Kd of 8.48 ± 0.31 nM.

Take B20: the Kd worked out at 10.7 ± 0.7 nM.

The molecule B21 registered a Kd of 7.4 ± 0.4 nM.

With B22, the Kd stood at 15.3 ± 0.7 nM.

With B23, the Kd stood at 35 ± 4 nM.

Molecule B24 registered a Kd of 14.6 ± 1 nM.

Consider B25, for which binding was put at a Kd of 12.6 ± 0.5 nM.

In turn, B26 had a Kd of 21.7 ± 2.1 nM.

B27 registered a Kd of 87 ± 23 nM.
